Test results reported in article PMC12523770.

Target: MyD88 (myeloid differentiation primary response 88), endogenous in mouse bone marrow-derived macrophages (mouse (endogenous in BMDMs)), P22366
Test: cross-linking; WT BMDMs stimulated with 1 µg/mL poly(I:C) for the indicated times (or primed with LPS, positive control); cleared freeze-thaw lysate with 2 mM DSS, 2 h, room temperature; SDS-PAGE, anti-MyD88 blot
Conditions: remark: other sources report otherwise

B1: MyD88 (myeloid differentiation primary response 88), endogenous in mouse bone marrow-derived macrophages, P22366 1-296 (natural protein)
chain: MSAGDPRVGSGSLDSFMFSIPLVALNVGVRRRLSLFLNPRTPVAADWTLLAEEMGFEYLEIRELETRPDPTRSLLDAWQGRSGASVGRLLELLALLDREDILKELKSRIEEDCQKYLGKQQNQESEKPLQVARVESSVPQTKELGGITTLDDPLGQTPELFDAFICYCPNDIEFVQEMIRQLEQTDYRLKLCVSDRDVLPGTCVWSIASELIEKRCRRMVVVVSDDYLQSKECDFQTKFALSLSPGVQQKRLIPIKYKAMKKDFPSILRFITICDYTNPCTKSWFWTRLAKALSLP
- stoichiometry N: 2
